Read-outs that look alike come from different tables or passages of the source.
Key:
[1] = target: human neutrophil elastase (immobilized on Reacti-Gel agarose beads, or free) (human) (UniProt P08246); experiment: pH elution of phage from HNE beads
[2] = target: trypsin (active, immobilized on beads, or in solution) (UniProt P00760); experiment: trypsin beads
[3] = target: trypsin (active, immobilized on beads, or in solution) (UniProt P00760); experiment: trypsin beads; remark: listed apart in the source
[4] = target: human neutrophil elastase (immobilized on Reacti-Gel agarose beads, or free) (human) (UniProt P08246); experiment: HNE beads, pH 4.0 wash
[5] = target: human neutrophil elastase (immobilized on Reacti-Gel agarose beads, or free) (human) (UniProt P08246); experiment: HNE beads, pH 7.0 wash
[6] = target: human neutrophil elastase (immobilized on Reacti-Gel agarose beads, or free) (human) (UniProt P08246); experiment: HNE beads, pH 2.2 elution
[7] = target: human neutrophil elastase (immobilized on Reacti-Gel agarose beads, or free) (human) (UniProt P08246); experiment: acid-eluted from HNE beads
[8] = target: human neutrophil elastase (immobilized on Reacti-Gel agarose beads, or free) (human) (UniProt P08246); experiment: HNE beads, sum of pH washes
[9] = target: trypsin (active, immobilized on beads, or in solution) (UniProt P00760); experiment: acid-eluted from trypsin beads
[10] = target: anhydro-trypsin (agarose-immobilized) (UniProt P00760); experiment: anhydrotrypsin beads, experiment 2
[11] = target: anhydro-trypsin (agarose-immobilized) (UniProt P00760); experiment: 2 µl immobilized anhydro-trypsin, dot blot
[12] = target: anhydro-trypsin (agarose-immobilized) (UniProt P00760); experiment: 5 µl immobilized anhydro-trypsin, dot blot
[13] = target: anhydro-trypsin (agarose-immobilized) (UniProt P00760); experiment: 10 µl immobilized anhydro-trypsin, dot blot
[14] = target: anhydro-trypsin (agarose-immobilized) (UniProt P00760); experiment: 5 µl immobilized anhydro-trypsin slurry, 2 h
[15] = target: anhydro-trypsin (agarose-immobilized) (UniProt P00760); experiment: 10 µl immobilized anhydro-trypsin slurry, 1 h
[16] = target: anhydro-trypsin (agarose-immobilized) (UniProt P00760); experiment: 10 µl immobilized anhydro-trypsin slurry, 2 h
[17] = target: human neutrophil elastase (immobilized on Reacti-Gel agarose beads, or free) (human) (UniProt P08246); experiment: HNE beads
[18] = target: anhydro-trypsin (agarose-immobilized) (UniProt P00760); experiment: anhydrotrypsin beads
[19] = target: trypsin (active, immobilized on beads, or in solution) (UniProt P00760); experiment: eluted from trypsin beads
[20] = target: anhydro-trypsin (agarose-immobilized) (UniProt P00760); experiment: eluted from anhydrotrypsin beads
[21] = target: streptavidin (agarose-immobilized) (UniProt P22629); experiment: titer after streptavidin beads
streptavidin (agarose-immobilized), sequence (P22629 37-163 limits assumed): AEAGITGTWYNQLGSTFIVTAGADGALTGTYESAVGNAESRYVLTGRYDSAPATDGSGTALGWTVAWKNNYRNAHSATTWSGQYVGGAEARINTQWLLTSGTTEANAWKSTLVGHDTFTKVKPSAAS

[22] = target: anhydro-trypsin (agarose-immobilized) (UniProt P00760); experiment: titer after anhydrotrypsin beads
[23] = target: anhydro-trypsin (agarose-immobilized) (UniProt P00760); experiment: anhydrotrypsin beads, experiment 1
[24] = target: protein A (agarose beads) (UniProt P38507); experiment: titer after protein A beads alone; batch 5
[25] = target: anhydro-trypsin (agarose-immobilized) (UniProt P00760); experiment: acid-eluted from anhydrotrypsin beads, experiment 1
[26] = target: human Cathepsin G (immobilized on agarose beads) (human) (UniProt P08311); experiment: Cat-G beads, pH 2.0 eluate
human Cathepsin G (immobilized on agarose beads) (human), sequence (P08311 21-244 limits assumed): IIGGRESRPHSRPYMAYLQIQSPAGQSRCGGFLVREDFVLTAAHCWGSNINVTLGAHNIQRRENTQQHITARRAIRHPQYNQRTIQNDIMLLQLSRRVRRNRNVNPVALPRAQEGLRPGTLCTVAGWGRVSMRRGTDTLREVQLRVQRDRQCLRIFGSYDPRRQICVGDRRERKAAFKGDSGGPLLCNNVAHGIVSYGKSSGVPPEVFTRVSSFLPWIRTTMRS

[27] = target: human Cathepsin G (immobilized on agarose beads) (human) (UniProt P08311); experiment: Cat-G beads, pH 2.5 eluate
[28] = target: human Cathepsin G (immobilized on agarose beads) (human) (UniProt P08311); experiment: Cat-G beads, pH 3.0 eluate
[29] = target: human Cathepsin G (immobilized on agarose beads) (human) (UniProt P08311); experiment: Cat-G beads, pH 3.5 eluate
[30] = target: human Cathepsin G (immobilized on agarose beads) (human) (UniProt P08311); experiment: Cat-G beads, pH 4.0 eluate
[31] = target: human Cathepsin G (immobilized on agarose beads) (human) (UniProt P08311); experiment: Cat-G beads, pH 4.5 eluate
[32] = target: human Cathepsin G (immobilized on agarose beads) (human) (UniProt P08311); experiment: Cat-G beads, pH 5.0 eluate
[33] = target: human Cathepsin G (immobilized on agarose beads) (human) (UniProt P08311); experiment: Cat-G beads, pH 5.5 eluate
[34] = target: human Cathepsin G (immobilized on agarose beads) (human) (UniProt P08311); experiment: Cat-G beads, pH 6.0 eluate
[35] = target: human Cathepsin G (immobilized on agarose beads) (human) (UniProt P08311); experiment: Cat-G beads, pH 7.0 eluate
[36] = target: human Cathepsin G (immobilized on agarose beads) (human) (UniProt P08311); experiment: Cat-G beads, all pH eluates
[37] = target: human Cathepsin G (immobilized on agarose beads) (human) (UniProt P08311); experiment: Cat-G beads, final TBS-TWEEN wash
[38] = target: streptavidin (agarose-immobilized) (UniProt P22629); experiment: 5 µl immobilized streptavidin slurry, 1 h
[39] = target: streptavidin (agarose-immobilized) (UniProt P22629); experiment: 5 µl immobilized streptavidin slurry, 2 h
[40] = target: streptavidin (agarose-immobilized) (UniProt P22629); experiment: 5 µl immobilized streptavidin slurry, 4 h
[41] = target: trypsin (active, immobilized on beads, or in solution) (UniProt P00760); experiment: trypsin beads, CBS pH 6.5, pH 2.2 elution
[42] = target: trypsin (active, immobilized on beads, or in solution) (UniProt P00760); experiment: trypsin beads, TBS pH 7.5, pH 2.2 elution
[43] = target: anhydro-trypsin (agarose-immobilized) (UniProt P00760); experiment: 2 µl immobilized anhydro-trypsin slurry, 1 h
[44] = target: anhydro-trypsin (agarose-immobilized) (UniProt P00760); experiment: 2 µl immobilized anhydro-trypsin slurry, 2 h
[45] = target: anhydro-trypsin (agarose-immobilized) (UniProt P00760); experiment: 2 µl immobilized anhydro-trypsin slurry, 4 h
[46] = target: anhydro-trypsin (agarose-immobilized) (UniProt P00760); experiment: 5 µl immobilized anhydro-trypsin slurry, 1 h
[47] = target: anhydro-trypsin (agarose-immobilized) (UniProt P00760); experiment: 5 µl immobilized anhydro-trypsin slurry, 4 h
[48] = target: anhydro-trypsin (agarose-immobilized) (UniProt P00760); experiment: 10 µl immobilized anhydro-trypsin slurry, 4 h
[49] = target: M13mp18 phage (wild type, non-display phage); experiment: titer after normal rabbit IgG
[50] = target: M13MB48 phage (BPTI fused to the mature M13 gene VIII major coat protein) (Bos taurus / phage M13); experiment: titer after normal rabbit IgG; batch 4
[51] = target: M13MB48 phage (BPTI fused to the mature M13 gene VIII major coat protein) (Bos taurus / phage M13); experiment: titer after normal rabbit IgG; batch 5
[52] = target: M13mp18 phage (wild type, non-display phage); experiment: titer after normal rabbit IgG + protein A beads
[53] = target: M13MB48 phage (BPTI fused to the mature M13 gene VIII major coat protein) (Bos taurus / phage M13); experiment: titer after normal rabbit IgG + protein A beads; batch 4
[54] = target: M13MB48 phage (BPTI fused to the mature M13 gene VIII major coat protein) (Bos taurus / phage M13); experiment: titer after normal rabbit IgG + protein A beads; batch 5

trypsin (active, immobilized on beads, or in solution), sequence (P00760 24-246): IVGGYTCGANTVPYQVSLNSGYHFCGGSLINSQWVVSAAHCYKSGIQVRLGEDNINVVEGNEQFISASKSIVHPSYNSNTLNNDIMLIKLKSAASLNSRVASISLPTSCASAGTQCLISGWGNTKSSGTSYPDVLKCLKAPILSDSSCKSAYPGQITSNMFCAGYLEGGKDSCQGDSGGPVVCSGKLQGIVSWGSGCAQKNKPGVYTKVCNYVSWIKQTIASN
human neutrophil elastase (immobilized on Reacti-Gel agarose beads, or free) (human), sequence (P08246 30-247 limits assumed): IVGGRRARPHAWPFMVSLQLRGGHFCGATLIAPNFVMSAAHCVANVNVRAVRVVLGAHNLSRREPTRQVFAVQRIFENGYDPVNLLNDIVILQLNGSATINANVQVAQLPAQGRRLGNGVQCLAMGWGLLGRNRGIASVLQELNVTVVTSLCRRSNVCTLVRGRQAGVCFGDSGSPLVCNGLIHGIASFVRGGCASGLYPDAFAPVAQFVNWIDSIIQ

## BPTI(K15V,R17L)-III MA phage (designed binder)
[1]
  pH of elution peak: 4.25 pH

## BPTI-III MK phage (M13 phage displaying mature BPTI fused to the gene III protein)
[2]
  relative binding (to M13MP18): 5000 fold
[3]
  relative binding (to M13MP18): 2000 fold
[4]
  % of input phage: 0.001%
  total pfu in fraction: 30000 pfu
[5]
  % of input phage: 0.002%
  total pfu in fraction: 50000 pfu
[6]
  % of input phage recovered: 0.005%
[7]
  eluted phage, % of input: 0.005%
[8]
  percentage of input phage recovered (all fractions): 0.008%
[9]
  eluted phage, % of input: 1%
[10]
  binding relative to M13mp18: 40 fold
[11]
  percent of total phage recovered in elution buffer: 5%
[12]
  percent of total phage recovered in elution buffer: 20%
[13]
  percent of total phage recovered in elution buffer: 50%
[14]
  percent residual titer: 40%
[15]
  percent residual titer: 40%
[16]
  percent residual titer: 30%

## M13.3X7 phage (BPTI:VIII fusion with one EGGGS linker)
[7]
  eluted phage, % of input: 0.001%

## M13.3X11 phage (BPTI:VIII fusion with three linker units)
[17]
  relative binding (to M13MP18): 6.7 fold
[2]
  relative binding (to M13MP18): 1200 fold
[3]
  relative binding (to M13MP18): 1600 fold
[18]
  relative binding (to M13MP18): 92 fold
[19]
  eluted phage, % of input: 0.27%
[7]
  eluted phage, % of input: 0.002%
[9]
  eluted phage, % of input: 0.8%
[20]
  eluted phage, % of input: 9.2%

## M13MB48 phage (BPTI fused to the mature M13 gene VIII major coat protein)
[17]
  relative binding (to M13MP18): 30 fold
[3]
  relative binding (to M13MP18): 260 fold
[7]
  eluted phage, % of input: 0.009%
[21]
  % of input pfu post incubation: 98%
[9]
  eluted phage, % of input: 0.13%
[22]
  % of input pfu post incubation: 58%
[23]
  binding relative to M13MP18: 56 fold
[24]
  % of input pfu: 58%
[25]
  eluted phage, % of input: 11.2%

## MA-ITI phage (M13 phage displaying human ITI domain I fused to the gene III protein) (from UniProt P02760 227-281)
[26]
  fraction of input: 7e-07
[27]
  fraction of input: 5.9e-07
[28]
  fraction of input: 7.8e-07
[29]
  fraction of input: 9.6e-07
[30]
  fraction of input: 9.6e-07
[31]
  fraction of input: 1.5e-06
[32]
  fraction of input: 2.4e-06
[33]
  fraction of input: 2.6e-06
[34]
  fraction of input: 5e-06
[35]
  fraction of input: 1.3e-05
[36]
  fraction of input, SUM of pH elution fractions: 3e-05
  total pfu, SUM of pH elution fractions: 1.4e+07 pfu
[37]
  fraction of input: 1.5e-05
  total pfu in sample: 7.1e+06 pfu

## MK phage (M13-MB1/2-delta-NarI with kanamycin-resistance gene; no displayed domain)
[38]
  percent residual titer: 106%
[39]
  percent residual titer: 96%
[40]
  percent residual titer: 98%
[41]
  % of input phage recovered: 0.00028%
  total pfu recovered in elution buffer: 1.35e+06 pfu
[42]
  % of input phage recovered: 0.00034%
  total pfu recovered in elution buffer: 1.48e+06 pfu
[43]
  percent residual titer: 97%
[44]
  percent residual titer: 103%
[45]
  percent residual titer: 95%
[46]
  percent residual titer: 110%
[14]
  percent residual titer: 111%
[47]
  percent residual titer: 96%
[15]
  percent residual titer: 99%
[16]
  percent residual titer: 93%
[48]
  percent residual titer: 106%

## normal rabbit serum / IgG purified from normal rabbit pre-immune serum (antibody)
[49]
  % of input pfu: 104%
[50]
  % of input pfu: 125%
[51]
  % of input pfu: 105%
[52]
  % of input pfu: 88%
[53]
  % of input pfu: 121%
[54]
  % of input pfu: 110%
